Source: paper PMC8784325, “The ubiquitin-binding domain of DNA polymerase η directly binds to DNA clamp PCNA and regulates translesion DNA synthesis” (The Journal of Biological Chemistry, 2021)
Changes are numbered by the printed parent chain. Names may count otherwise.

T1: ScPolη (Saccharomyces cerevisiae, UniProt Q04049 1-632)
T1 construct: DNA polymerase eta (Rad30), Saccharomyces cerevisiae, 632 aa, wild type; also called ScRad30; S. cerevisiae DNA polymerase eta; source: purified
T1 sequence (looked up): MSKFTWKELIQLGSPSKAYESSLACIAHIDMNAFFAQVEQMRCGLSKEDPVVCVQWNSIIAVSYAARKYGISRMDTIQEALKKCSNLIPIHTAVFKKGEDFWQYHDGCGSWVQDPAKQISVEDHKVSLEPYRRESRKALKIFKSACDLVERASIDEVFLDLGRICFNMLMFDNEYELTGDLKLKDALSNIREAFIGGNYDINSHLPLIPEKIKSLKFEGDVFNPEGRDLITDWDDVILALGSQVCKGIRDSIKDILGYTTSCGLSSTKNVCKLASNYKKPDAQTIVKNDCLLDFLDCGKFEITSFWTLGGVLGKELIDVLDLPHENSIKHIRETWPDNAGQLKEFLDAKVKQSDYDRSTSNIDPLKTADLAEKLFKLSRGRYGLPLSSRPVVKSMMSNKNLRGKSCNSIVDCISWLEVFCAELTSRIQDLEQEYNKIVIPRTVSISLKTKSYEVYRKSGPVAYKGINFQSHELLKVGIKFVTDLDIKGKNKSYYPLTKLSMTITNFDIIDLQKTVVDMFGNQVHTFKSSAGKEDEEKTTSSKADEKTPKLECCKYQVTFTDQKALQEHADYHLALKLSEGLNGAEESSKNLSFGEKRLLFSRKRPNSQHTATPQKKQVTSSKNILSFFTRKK

T2: ScPCNA (Saccharomyces cerevisiae, UniProt P15873)
T2 construct: made in house; host or cells: E. coli BL21-DE3
T2 sequence (P15873 1-258): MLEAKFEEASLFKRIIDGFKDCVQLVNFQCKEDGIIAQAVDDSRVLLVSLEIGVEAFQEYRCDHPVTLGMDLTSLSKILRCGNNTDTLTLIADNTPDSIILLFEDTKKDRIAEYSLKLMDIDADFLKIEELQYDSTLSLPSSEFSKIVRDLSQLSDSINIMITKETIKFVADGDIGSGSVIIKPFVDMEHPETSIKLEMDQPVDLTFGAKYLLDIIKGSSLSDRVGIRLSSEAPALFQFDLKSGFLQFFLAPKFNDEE

B1: CaPCNA (natural protein, Candida albicans, UniProt Q5AMN0 1-259, looked up)
chain: MLEGKFEEAALLKKVVEAIKDCVKKCNFNCSEHGITVQAVDDSRVLLVSLLIGQTSFSEYRCDRDVTLGIDLESFSKIIKSANNEDFLTLLAEDSPDQIMAILEEKQKEKISEYSLKLMDIDSEFLQIDDMEYDAVVNMPSSDFAKLVRDLKNLSESLRVVVTKDSVKFTSEGDSGSGSVILKPYTNLKNERESVTISLDDPVDLTFGLKYLNDIVKAATLSDVITIKLADKTPALFEFKMQSGGYLRFYLAPKFDDDE
notes: proliferating cell nuclear antigen (PCNA), Candida albicans; also called C. albicans PCNA; source: E. coli BL21-DE3, purified
B2: 29-mer ubz peptide of CaPolη (607-635) (peptide)
peptide: KTKKCSRCKLSVDDPVEHNDYHIAMDLSN
notes: also called wild-type ubz peptide; WT UBZ peptide; source: synthetic peptide (China peptides Co Ltd, 98% purity)
B3: CaPCNA-90 (P253A, K254A) (natural protein)
chain: B1 chain with P253A, K254A
notes: source: E. coli BL21-DE3, purified
B4: ScPCNA (natural protein, Saccharomyces cerevisiae, UniProt P15873 1-258, looked up)
chain: T2 sequence (P15873 1-258)
notes: proliferating cell nuclear antigen (PCNA), Saccharomyces cerevisiae; also called S. cerevisiae PCNA; source: E. coli BL21-DE3, purified
B5: ScPolη: Saccharomyces cerevisiae DNA polymerase eta (protein)
chain: T1 sequence (looked up)
modifications: left off: GST, N-terminal, state not stated
notes: Saccharomyces cerevisiae DNA polymerase eta

Columns and labels:
CaPCNA [1] = test: ITC binding to CaPCNA; set-up: species or system Candida albicans; conditions: 25 °C, pH 7.4, CaPCNA injected, about 10 μM Polη mutant in cell, negatives repeated at various concentrations
Source text: To identify a region of CaPolη involved in PCNA interaction, we generated a deletion construct by inserting a stop codon at amino acid position 513 (K513) of CaPolη. […] The wild-type and truncated CaPolη were purified, and their interaction with CaPCNA was monitored by isothermal calorimetry (ITC) analysis. […] Since CaPolη functionally complements ScPolη and protects the fungal cells from UV-induced DNA damages ([17], [25], [26]), to further strengthen our finding, various Polη orfs were expressed under the constitutive ADH1 promoter in rad30Δ and rad30Δrev3Δ S. cerevisiae strains, and susceptibility to UV irradiation was determined.
To map the precise location of PCNA binding, another deletant CaPolη 1 to 601 aa was constructed that lacks the last 39 residues encompassing the ubz domain but retains Seq-3 and Seq-4 (Fig. 2A). […] To ascertain the function of ubz domain, two D626A and H624A, H628A of CaPolη mutants were generated and their ability to suppress UV sensitivity of Polη-deficient S. cerevisiae strains was examined. […] Similarly, UV-induced mutation rate was estimated by counting the number of canavanine-resistant colonies of various S. cerevisiae strains harboring CaPolη constructs. […] Subsequently, ITC and GST-pull-down assays were carried out to determine the role of ubz in PCNA binding.

[2] = biological target: wild-type CaPolη protein (1–640 aa) (Candida albicans); test: ITC; PCNA (200 μM, counted as a trimer) in the syringe, Polη (10 μM) or ubz peptide (20 μM) in the cell; 25 injections of 1.5 μl; 25 °C; 20 mM HEPES pH 7.4, 150 mM NaCl; single-site binding model
[3] = biological target: B2; test: as above; conditions: both partners purified
[4] = biological target: the molecule itself; test: SEC; about 10 μg of purified CaPCNA and CaPolη (1:1 M ratio) incubated 60 min at room temperature, or CaPCNA alone; Superdex 200 PC3.2/30; 50 mM HEPES pH 7.5, 150 mM NaCl, 10% glycerol; 0.05 ml/min, 4 °C
CaPCNA-90 (P253A, K254A) = biological target: B3; test: ITC; PCNA (200 μM, counted as a trimer) in the syringe, Polη (10 μM) or ubz peptide (20 μM) in the cell; 25 injections of 1.5 μl; 25 °C; 20 mM HEPES pH 7.4, 150 mM NaCl; single-site binding model; conditions: both partners purified
ScPCNA [5] = biological target: B4; test: as above; conditions: both partners purified
CaPCNA [6] = biological target: B1; test: as above; conditions: both partners purified
ScPolη = biological target: T1, ScPolη; test: as above; conditions: both partners purified
ScPCNA [7] = biological target: T2, ScPCNA; test: ITC binding to ScPCNA; conditions: 25 °C
Source text: To understand whether any sequence or structural differences of the ubz domains in these Polηs have an impact on functional differences, we used the solution structure of the ubz domain of human Polη as a template and determined the structure of the ubz domain of both Sc- and Ca-Polηs by computational modeling (Fig. 3A). […] The two cysteines are located on the fingertip made by the two β-strands, and the two histidines are located on the α-helix. […] Next we examined whether the ubz peptide can inhibit the binding of PCNA to Polη. An equimolar mixture of the ubz peptide and PCNA was injected into the calorimetric cell having CaPolη to examine the interference of peptide on the interaction between PCNA and Polη by ITC.
All the purified proteins and purchased peptides were dialyzed overnight against 1 l of a buffer containing 20 mM HEPES (pH 7.4) and 150 mM NaCl at 4 °C to ensure complete removal of DTT and glycerol from the protein storage buffer, which could affect the heat exchange while they interact. ITC assays were performed using a Malvern MicroCal PEAQ-ITC calorimeter. Before the experiment, the cell and the syringe were thoroughly washed with water, followed by cell rinsing with a buffer. A control run was carried out to make sure that the buffer is not participating in heat change where the cell was filled with 300 μl of a buffer and concentrated CaPCNA or ScPCNA protein (200 μM) in the syringe. ITC was performed using various Polηs or UBZ peptide or UBZ mutant peptide in the sample cell and CaPCNA or ScPCNA or a mixture of CaPCNA+ WT UBZ peptide in the syringe. Twenty-five injections of 1.5 μl of protein from the syringe were given at intervals of 120 s with an initial delay of 120 s at 25 °C. The data were analyzed to determine the various kinetic parameters using a single-site binding model provided in the ITC analysis software package.

## 607-KTKKCSRCKLSVDDPVEANDYAIAMDLSN-635 [mutant peptide]
CaPCNA [1]
  Binding to CaPCNA by ITC (in words): did not show any sign of binding

## B1
[2]
  Kd: 7.15 µM
  dH: -22.1 kcal/mol
  stoichiometry N: 0.315
[3]
  dH: -80 kcal/mol
  stoichiometry N: 0.355
[4]
  stoichiometry N: 3

## B2
CaPCNA-90 (P253A, K254A)
  Kd: 39 µM
ScPCNA [5]
  Kd: 15.6 µM
CaPCNA [6]
  Kd: 19.8 µM

## B3
[3]
  dH: -79.9 kcal/mol
  stoichiometry N: 0.316

## B4
[3]
  dH: -24.2 kcal/mol
  stoichiometry N: 0.34
ScPolη
  Kd: 15.1 µM
  dH: -79.9 kcal/mol
  stoichiometry N: 0.31

## B5
ScPCNA [7]; 20 mM HEPES pH 7.4, 150 mM NaCl, syringe ScPCNA 200 μM, cell 10 μM ScPolη or 20 μM ubz peptide, single-site model, repeated twice
  Kd: 15.1 µM
ScPCNA [7]; pH 7.4, ScPCNA 200 μM in syringe
  Stoichiometry: 0.31
ScPCNA [7]; pH 7.4, ScPCNA, unit not given
  ΔG: −6.58
  ΔH: −79.9
  −TΔS: 73.3
